Among the data in patent US20210139548A1 (published 2021) are Ki values, retold here.

Usually Ki stands for a dissociation constant, usually derived from enzyme kinetics or from competition with a known ligand.

*1 amine or outer side, *2 acyl side, *3 side chain or, on linkers, in order; H or OH if unused. Side-chain parts run from the residue outwards. The star is where a group is joined. C18 diacid = O=C(O)CCCCCCCCCCCCCCCCC(=O)*; γGlu = O=C(O)[C@H](CCC(=O)[*:2])N[*:1]; Isovaleryl = CC(C)CC(=O)*; AEEA = NCCOCCOCC(=O)O

The labels stand for the following.
B1: Compound 147 (peptide)
peptide: Isovaleryl-APEK([AEEA-AEEA-γGlu-C18 diacid])PEEDASPEETQKYYVSLRHYYNWLTRQRY-NH2
SMILES: CC(C)CC(=O)N[C@@H](C)C(=O)N1CCC[C@H]1C(=O)N[C@@H](CCC(=O)O)C(=O)N[C@@H](CCCCNC(=O)COCCOCCNC(=O)COCCOCCNC(=O)CC[C@H](NC(=O)CCCCCCCCCCCCCCCCC(=O)O)C(=O)O)C(=O)N1CCC[C@H]1C(=O)N[C@@H](CCC(=O)O)C(=O)N[C@@H](CCC(=O)O)C(=O)N[C@@H](CC(=O)O)C(=O)N[C@@H](C)C(=O)N[C@@H](CO)C(=O)N1CCC[C@H]1C(=O)N[C@@H](CCC(=O)O)C(=O)N[C@@H](CCC(=O)O)C(=O)N[C@H](C(=O)N[C@@H](CCC(N)=O)C(=O)N[C@@H](CCCCN)C(=O)N[C@@H](Cc1ccc(O)cc1)C(=O)N[C@@H](Cc1ccc(O)cc1)C(=O)N[C@H](C(=O)N[C@@H](CO)C(=O)N[C@@H](CC(C)C)C(=O)N[C@@H](CCCNC(=N)N)C(=O)N[C@@H](Cc1c[nH]cn1)C(=O)N[C@@H](Cc1ccc(O)cc1)C(=O)N[C@@H](Cc1ccc(O)cc1)C(=O)N[C@@H](CC(N)=O)C(=O)N[C@@H](Cc1c[nH]c2ccccc12)C(=O)N[C@@H](CC(C)C)C(=O)N[C@H](C(=O)N[C@@H](CCCNC(=N)N)C(=O)N[C@@H](CCC(N)=O)C(=O)N[C@@H](CCCNC(=N)N)C(=O)N[C@@H](Cc1ccc(O)cc1)C(N)=O)[C@@H](C)O)C(C)C)[C@@H](C)O
B2: Compound 150 (peptide)
peptide: Isovaleryl-APEK([AEEA-AEEA-γGlu-C18 diacid])PEEDAEPEELQKYYVSLRHYYNWLTRQRY-NH2
SMILES: CC(C)CC(=O)N[C@@H](C)C(=O)N1CCC[C@H]1C(=O)N[C@@H](CCC(=O)O)C(=O)N[C@@H](CCCCNC(=O)COCCOCCNC(=O)COCCOCCNC(=O)CC[C@H](NC(=O)CCCCCCCCCCCCCCCCC(=O)O)C(=O)O)C(=O)N1CCC[C@H]1C(=O)N[C@@H](CCC(=O)O)C(=O)N[C@@H](CCC(=O)O)C(=O)N[C@@H](CC(=O)O)C(=O)N[C@@H](C)C(=O)N[C@@H](CCC(=O)O)C(=O)N1CCC[C@H]1C(=O)N[C@@H](CCC(=O)O)C(=O)N[C@@H](CCC(=O)O)C(=O)N[C@@H](CC(C)C)C(=O)N[C@@H](CCC(N)=O)C(=O)N[C@@H](CCCCN)C(=O)N[C@@H](Cc1ccc(O)cc1)C(=O)N[C@@H](Cc1ccc(O)cc1)C(=O)N[C@H](C(=O)N[C@@H](CO)C(=O)N[C@@H](CC(C)C)C(=O)N[C@@H](CCCNC(=N)N)C(=O)N[C@@H](Cc1c[nH]cn1)C(=O)N[C@@H](Cc1ccc(O)cc1)C(=O)N[C@@H](Cc1ccc(O)cc1)C(=O)N[C@@H](CC(N)=O)C(=O)N[C@@H](Cc1c[nH]c2ccccc12)C(=O)N[C@@H](CC(C)C)C(=O)N[C@H](C(=O)N[C@@H](CCCNC(=N)N)C(=O)N[C@@H](CCC(N)=O)C(=O)N[C@@H](CCCNC(=N)N)C(=O)N[C@@H](Cc1ccc(O)cc1)C(N)=O)[C@@H](C)O)C(C)C
B3: Compound 151 (peptide)
peptide: Isovaleryl-APEK([AEEA-AEEA-γGlu-C18 diacid])PEAEASPEELQRYYVSLRHYYNWLTRQRY-NH2
SMILES: CC(C)CC(=O)N[C@@H](C)C(=O)N1CCC[C@H]1C(=O)N[C@@H](CCC(=O)O)C(=O)N[C@@H](CCCCNC(=O)COCCOCCNC(=O)COCCOCCNC(=O)CC[C@H](NC(=O)CCCCCCCCCCCCCCCCC(=O)O)C(=O)O)C(=O)N1CCC[C@H]1C(=O)N[C@@H](CCC(=O)O)C(=O)N[C@@H](C)C(=O)N[C@@H](CCC(=O)O)C(=O)N[C@@H](C)C(=O)N[C@@H](CO)C(=O)N1CCC[C@H]1C(=O)N[C@@H](CCC(=O)O)C(=O)N[C@@H](CCC(=O)O)C(=O)N[C@@H](CC(C)C)C(=O)N[C@@H](CCC(N)=O)C(=O)N[C@@H](CCCNC(=N)N)C(=O)N[C@@H](Cc1ccc(O)cc1)C(=O)N[C@@H](Cc1ccc(O)cc1)C(=O)N[C@H](C(=O)N[C@@H](CO)C(=O)N[C@@H](CC(C)C)C(=O)N[C@@H](CCCNC(=N)N)C(=O)N[C@@H](Cc1c[nH]cn1)C(=O)N[C@@H](Cc1ccc(O)cc1)C(=O)N[C@@H](Cc1ccc(O)cc1)C(=O)N[C@@H](CC(N)=O)C(=O)N[C@@H](Cc1c[nH]c2ccccc12)C(=O)N[C@@H](CC(C)C)C(=O)N[C@H](C(=O)N[C@@H](CCCNC(=N)N)C(=O)N[C@@H](CCC(N)=O)C(=O)N[C@@H](CCCNC(=N)N)C(=O)N[C@@H](Cc1ccc(O)cc1)C(N)=O)[C@@H](C)O)C(C)C
B4: Compound 152 (peptide)
peptide: Isovaleryl-APEK([AEEA-AEEA-γGlu-C18 diacid])AEEDASPEEIQRYYVSLRHYYNWLTRQRY-NH2
SMILES: CC[C@H](C)[C@H](NC(=O)[C@H](CCC(=O)O)NC(=O)[C@H](CCC(=O)O)NC(=O)[C@@H]1CCCN1C(=O)[C@H](CO)NC(=O)[C@H](C)NC(=O)[C@H](CC(=O)O)NC(=O)[C@H](CCC(=O)O)NC(=O)[C@H](CCC(=O)O)NC(=O)[C@H](C)NC(=O)[C@H](CCCCNC(=O)COCCOCCNC(=O)COCCOCCNC(=O)CC[C@H](NC(=O)CCCCCCCCCCCCCCCCC(=O)O)C(=O)O)NC(=O)[C@H](CCC(=O)O)NC(=O)[C@@H]1CCCN1C(=O)[C@H](C)NC(=O)CC(C)C)C(=O)N[C@@H](CCC(N)=O)C(=O)N[C@@H](CCCNC(=N)N)C(=O)N[C@@H](Cc1ccc(O)cc1)C(=O)N[C@@H](Cc1ccc(O)cc1)C(=O)N[C@H](C(=O)N[C@@H](CO)C(=O)N[C@@H](CC(C)C)C(=O)N[C@@H](CCCNC(=N)N)C(=O)N[C@@H](Cc1c[nH]cn1)C(=O)N[C@@H](Cc1ccc(O)cc1)C(=O)N[C@@H](Cc1ccc(O)cc1)C(=O)N[C@@H](CC(N)=O)C(=O)N[C@@H](Cc1c[nH]c2ccccc12)C(=O)N[C@@H](CC(C)C)C(=O)N[C@H](C(=O)N[C@@H](CCCNC(=N)N)C(=O)N[C@@H](CCC(N)=O)C(=O)N[C@@H](CCCNC(=N)N)C(=O)N[C@@H](Cc1ccc(O)cc1)C(N)=O)[C@@H](C)O)C(C)C
B5: Compound 149 (peptide)
peptide: Isovaleryl-APEK([AEEA-AEEA-γGlu-C18 diacid])PEEAASPEELQRYYVELRHYYNWLTRQRY-NH2
SMILES: CC(C)CC(=O)N[C@@H](C)C(=O)N1CCC[C@H]1C(=O)N[C@@H](CCC(=O)O)C(=O)N[C@@H](CCCCNC(=O)COCCOCCNC(=O)COCCOCCNC(=O)CC[C@H](NC(=O)CCCCCCCCCCCCCCCCC(=O)O)C(=O)O)C(=O)N1CCC[C@H]1C(=O)N[C@@H](CCC(=O)O)C(=O)N[C@@H](CCC(=O)O)C(=O)N[C@@H](C)C(=O)N[C@@H](C)C(=O)N[C@@H](CO)C(=O)N1CCC[C@H]1C(=O)N[C@@H](CCC(=O)O)C(=O)N[C@@H](CCC(=O)O)C(=O)N[C@@H](CC(C)C)C(=O)N[C@@H](CCC(N)=O)C(=O)N[C@@H](CCCNC(=N)N)C(=O)N[C@@H](Cc1ccc(O)cc1)C(=O)N[C@@H](Cc1ccc(O)cc1)C(=O)N[C@H](C(=O)N[C@@H](CCC(=O)O)C(=O)N[C@@H](CC(C)C)C(=O)N[C@@H](CCCNC(=N)N)C(=O)N[C@@H](Cc1c[nH]cn1)C(=O)N[C@@H](Cc1ccc(O)cc1)C(=O)N[C@@H](Cc1ccc(O)cc1)C(=O)N[C@@H](CC(N)=O)C(=O)N[C@@H](Cc1c[nH]c2ccccc12)C(=O)N[C@@H](CC(C)C)C(=O)N[C@H](C(=O)N[C@@H](CCCNC(=N)N)C(=O)N[C@@H](CCC(N)=O)C(=O)N[C@@H](CCCNC(=N)N)C(=O)N[C@@H](Cc1ccc(O)cc1)C(N)=O)[C@@H](C)O)C(C)C

This assay has as its target T1, human neuropeptide Y2 receptor (human, UniProt P49146 1-381).
T1 construct: whole, on cells; also called hNPY2 receptor; hNPY2-R
T1 sequence (looked up): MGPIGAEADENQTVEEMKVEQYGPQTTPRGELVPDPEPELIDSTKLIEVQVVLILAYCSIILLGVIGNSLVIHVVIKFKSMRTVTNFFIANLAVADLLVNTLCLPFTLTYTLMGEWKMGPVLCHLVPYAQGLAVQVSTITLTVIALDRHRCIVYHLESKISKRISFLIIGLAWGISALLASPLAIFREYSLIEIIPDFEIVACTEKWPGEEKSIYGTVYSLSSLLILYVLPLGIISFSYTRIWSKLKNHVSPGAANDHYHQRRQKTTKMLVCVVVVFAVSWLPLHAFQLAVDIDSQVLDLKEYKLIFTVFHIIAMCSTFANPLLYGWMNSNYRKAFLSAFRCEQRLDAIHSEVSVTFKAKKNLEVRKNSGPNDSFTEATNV
Kind of assay: radioligand competition (125I-PYY(1-36)), hNPY2R membranes. In a few lines:
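Commercial human Y2 receptor membranes (0.5 μg protein/well) were incubated with peptide for 2 h at room temperature in 50 mM HEPES, 5 mM MgCl₂, 1 mM CaCl₂, pH 7.4, with 0.2% ovalbumin. Bound radioligand was separated on PEI-soaked GF/C filters and counted by scintillation, and IC₅₀ came from nonlinear sigmoidal regression.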
With B1, the Ki was 1.19 nM. With B2, the Ki worked out at 2.02 nM. This Ki is about 1.7-fold higher than that of the molecule before. With B3, the affinity corresponds to a Ki of 1.43 nM. The Ki values of the last two molecules are within 1.5-fold of each other. B4 yielded a Ki of 5.18 nM. Take B5: the inhibitory constant (Ki) was 2.75 nM.
